These results are taken from patent publication US20130078247A1 (Boehringer Ingelheim, published 2013).

Positions count from the first letter of the chain named. Like-named read-outs stand apart in the source and are kept apart here.

In experiment [1] the target is T1, mouse Ang2 (mouse, UniProt O35608 19-496, limits assumed).
T1 construct: also called mAng2
T1 sequence (looked up): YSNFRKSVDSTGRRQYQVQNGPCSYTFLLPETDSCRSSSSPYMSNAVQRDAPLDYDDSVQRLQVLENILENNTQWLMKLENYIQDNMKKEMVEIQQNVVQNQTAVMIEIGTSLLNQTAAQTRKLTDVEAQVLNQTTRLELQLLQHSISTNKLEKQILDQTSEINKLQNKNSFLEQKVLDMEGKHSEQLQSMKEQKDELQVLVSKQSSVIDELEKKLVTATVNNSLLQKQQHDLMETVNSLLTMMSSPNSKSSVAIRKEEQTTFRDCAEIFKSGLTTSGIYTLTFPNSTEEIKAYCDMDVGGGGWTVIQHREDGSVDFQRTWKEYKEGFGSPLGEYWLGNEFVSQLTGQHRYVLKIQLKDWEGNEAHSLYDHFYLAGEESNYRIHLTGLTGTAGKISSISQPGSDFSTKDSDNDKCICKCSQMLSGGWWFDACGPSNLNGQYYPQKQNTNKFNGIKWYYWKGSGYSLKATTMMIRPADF
The experiment in a line: competition ELISA: mAng2 binding to mTie2. How it is done:
(§1) This assay is also performed after incubation of the VHH with 0.5 μM human serum albumin.

Experiment [2] concerns the target T1, mouse Ang2. The experiment in a line: competition ELISA: mAng2 binding to mTie2. The method, then:
as §1
The source holds these as a separate data set.

Experiment [3] deals with T2, cynomolgus Ang2 (cynomolgus).
T2 construct: also called cAng2; cyno Ang2
Description: competition ELISA: cAng2 binding to cTie2. The method, then: as §1

For experiment [4], the target named is T2, cynomolgus Ang2. Description: competition ELISA: cAng2 binding to cTie2. How it is done: as §1
This is another data set of the same source.

The target in experiment [5] is T3, cynomolgus DLL4, full length, overexpressed on cells (cynomolgus, UniProt Q9NR61 27-685 (human entry)).
T3 construct: also called CHO-cDLL4; cDLL4
T3 chain: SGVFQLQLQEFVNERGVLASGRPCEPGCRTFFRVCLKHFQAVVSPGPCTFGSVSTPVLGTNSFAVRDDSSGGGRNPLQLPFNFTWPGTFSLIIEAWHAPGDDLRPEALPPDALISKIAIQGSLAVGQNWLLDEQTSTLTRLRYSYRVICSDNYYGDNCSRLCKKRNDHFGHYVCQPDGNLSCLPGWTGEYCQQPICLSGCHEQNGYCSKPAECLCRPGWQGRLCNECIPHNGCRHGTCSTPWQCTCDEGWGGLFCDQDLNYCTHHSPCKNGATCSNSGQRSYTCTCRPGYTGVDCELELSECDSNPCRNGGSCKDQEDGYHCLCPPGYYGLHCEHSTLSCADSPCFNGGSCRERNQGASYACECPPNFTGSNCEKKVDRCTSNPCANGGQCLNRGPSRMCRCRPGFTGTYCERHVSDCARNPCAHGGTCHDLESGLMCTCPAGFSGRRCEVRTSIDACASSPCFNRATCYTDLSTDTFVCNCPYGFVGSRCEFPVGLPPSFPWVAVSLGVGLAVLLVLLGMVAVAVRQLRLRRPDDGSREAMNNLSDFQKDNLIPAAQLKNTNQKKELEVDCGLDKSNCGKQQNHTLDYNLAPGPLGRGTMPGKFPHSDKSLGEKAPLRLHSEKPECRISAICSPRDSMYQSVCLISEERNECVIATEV
The experiment in a line: FACS titration on HEK293-cDLL4 cells. How it is done: (§2) In order to determine the cynomologus cross-reactivity of the VHHs, a FACS binding experiment is performed. Cynomolgus DII4 expressing HEK293 cells (transient or stable transfection) are used for a titration binding experiment of the VHHs. After a 30 minutes incubation on ice, all samples are washed and detection is performed by applying anti-c-myc-Alexa647 (Santa Cruz Biotechnology, Santa Cruz, Calif., USA). Human and mouse DII4 overexpressing HEK293 cells are taken as reference. The mean MCF value is determined on the FACS Array and used for calculation of the EC₅₀ value (see FIG. 9).

The target in experiment [6] is T4, human DLL4, full length, overexpressed on CHO or HEK293 cells (human, UniProt Q9NR61 27-685).
T4 construct: also called CHO-hDLL4; CHO-hDII4
Description: FACS titration on HEK293-hDLL4 cells. How it is done:
as §2

For experiment [7], the target named is T5, mouse DLL4, full length, overexpressed on CHO or HEK293 cells (mouse, UniProt Q9JI71 27-686).
T5 construct: whole, on cells; also called CHO-mDLL4; CHO-mDII4
Description: FMAT competition: labelled hNotch1-Fc on CHO-mDLL4 cells. From the text: (§3) All calculations are based on the FL1_total signal which comprises the average of the fluorescence per well times the number of counts per well.

The target in experiment [8] is T4, human DLL4, full length, overexpressed …. The experiment in a line: FMAT competition: labelled hNotch1-Fc on CHO-hDLL4 cells.
Source text: as §3

The target in experiment [9] is T6, recombinant human DLL1 (Alexis) (human, UniProt O00548 18-545, limits assumed).
T6 construct: also called hDLL1; rhDLL1
T6 sequence (looked up): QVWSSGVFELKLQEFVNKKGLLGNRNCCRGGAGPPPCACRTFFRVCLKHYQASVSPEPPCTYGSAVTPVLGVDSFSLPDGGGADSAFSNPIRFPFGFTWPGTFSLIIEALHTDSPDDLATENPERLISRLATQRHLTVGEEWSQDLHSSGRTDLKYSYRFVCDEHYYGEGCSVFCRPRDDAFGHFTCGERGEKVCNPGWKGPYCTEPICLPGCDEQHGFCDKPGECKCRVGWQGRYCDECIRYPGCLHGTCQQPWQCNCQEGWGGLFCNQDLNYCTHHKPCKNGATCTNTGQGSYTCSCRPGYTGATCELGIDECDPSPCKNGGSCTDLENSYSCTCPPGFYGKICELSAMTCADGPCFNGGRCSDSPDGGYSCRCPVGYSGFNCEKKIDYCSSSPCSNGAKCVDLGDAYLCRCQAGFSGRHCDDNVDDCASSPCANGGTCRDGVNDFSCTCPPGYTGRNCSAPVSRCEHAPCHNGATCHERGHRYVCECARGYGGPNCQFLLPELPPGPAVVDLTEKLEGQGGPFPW
Description: rhDLL1/rhJAG1 binding ELISA.

Experiment [10] concerns the target T7, recombinant human Jagged-1 (Alexis) (human, UniProt P78504 34-1067, limits assumed).
T7 construct: also called hJagged-1; hJAG1
The experiment in a line: rhDLL1/rhJAG1 binding ELISA.

In experiment [11] the target is T8, recombinant human DLL4 extracellular domain, C-terminally His-tagged (R&D Systems) (human, UniProt Q9NR61 25-522, biotinylated in the competition assays (sites not given)).
T8 construct: also called rhDLL4; hDLL4; not shown: C-terminal His tag
The experiment in a line: binding ELISA on coated rhDLL4.

Experiment [12] concerns the target T9, recombinant mouse DLL4 extracellular domain, C-terminally His-tagged (R&D Systems) (mouse, UniProt Q9JI71 27-525).
T9 construct: range 1-525; also called rmDLL4; mDLL4; not shown: C-terminal His tag
Description: binding ELISA on coated rmDLL4. How it is done:
In order to determine cross-reactivity to mouse DII4 a binding ELISA is performed. […] Wells are blocked with a casein solution (1% in PBS). VHHs are applied as dilution series and binding is detected using a mouse anti-myc (Roche) and an anti-mouse-AP conjugate (Sigma, St Louis, Mo., USA) (FIG. 7).

The target in experiment [13] is T10, human Ang2 (human, UniProt O15123 19-496, limits assumed).
T10 construct: also called hAng2; human Angiopoietin2
T10 sequence (looked up): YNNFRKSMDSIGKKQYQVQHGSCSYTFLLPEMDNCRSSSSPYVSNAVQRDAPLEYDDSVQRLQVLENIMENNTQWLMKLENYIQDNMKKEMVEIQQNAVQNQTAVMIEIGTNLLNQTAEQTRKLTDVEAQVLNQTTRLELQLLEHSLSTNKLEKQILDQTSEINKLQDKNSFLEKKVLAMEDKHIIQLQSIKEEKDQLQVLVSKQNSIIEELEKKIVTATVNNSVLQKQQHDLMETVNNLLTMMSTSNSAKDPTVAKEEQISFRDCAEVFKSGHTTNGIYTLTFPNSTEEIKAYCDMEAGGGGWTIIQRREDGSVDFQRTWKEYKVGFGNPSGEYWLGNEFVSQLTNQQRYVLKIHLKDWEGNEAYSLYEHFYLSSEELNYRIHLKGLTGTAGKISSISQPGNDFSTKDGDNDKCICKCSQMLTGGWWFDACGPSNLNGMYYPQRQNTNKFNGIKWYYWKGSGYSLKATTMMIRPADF
Description: competition ELISA hAng2/hTie2-Fc, with 0.5 uM HSA [continued]. How it is done: as §1

Experiment [14] deals with T10, human Ang2. The experiment in a line: competition ELISA hAng2/hTie2-Fc. How it is done: as §1
Experiment [15] has as its target T1, mouse Ang2. Description: competition ELISA mAng2/mTie2. How it is done:
as §1

The target of experiment [16] is T10, human Ang2. Description: competition ELISA: hAng2 binding to hTie2.
For experiment [17], the target named is T1, mouse Ang2. Description: competition ELISA: mAng2 binding to mTie2. The source holds these as a separate data set.
Experiment [18] deals with T2, cynomolgus Ang2. The experiment in a line: competition ELISA: cAng2 binding to cTie2. This is another data set of the same source.

T8 sequence (Q9NR61 25-522): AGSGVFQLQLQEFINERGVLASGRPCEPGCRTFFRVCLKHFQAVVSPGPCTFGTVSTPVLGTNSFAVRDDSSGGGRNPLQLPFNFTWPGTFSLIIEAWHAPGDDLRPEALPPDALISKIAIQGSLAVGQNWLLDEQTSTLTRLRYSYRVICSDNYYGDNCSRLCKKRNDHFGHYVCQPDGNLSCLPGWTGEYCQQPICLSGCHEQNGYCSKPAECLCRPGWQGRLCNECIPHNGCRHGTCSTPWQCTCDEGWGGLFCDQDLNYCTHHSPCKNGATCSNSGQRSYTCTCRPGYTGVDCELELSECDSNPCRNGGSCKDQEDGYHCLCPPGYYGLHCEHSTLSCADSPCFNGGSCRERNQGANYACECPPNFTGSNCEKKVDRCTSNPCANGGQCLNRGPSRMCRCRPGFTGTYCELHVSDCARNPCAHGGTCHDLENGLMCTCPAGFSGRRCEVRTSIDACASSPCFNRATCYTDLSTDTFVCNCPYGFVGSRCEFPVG
T9 sequence (Q9JI71 27-525 limits assumed): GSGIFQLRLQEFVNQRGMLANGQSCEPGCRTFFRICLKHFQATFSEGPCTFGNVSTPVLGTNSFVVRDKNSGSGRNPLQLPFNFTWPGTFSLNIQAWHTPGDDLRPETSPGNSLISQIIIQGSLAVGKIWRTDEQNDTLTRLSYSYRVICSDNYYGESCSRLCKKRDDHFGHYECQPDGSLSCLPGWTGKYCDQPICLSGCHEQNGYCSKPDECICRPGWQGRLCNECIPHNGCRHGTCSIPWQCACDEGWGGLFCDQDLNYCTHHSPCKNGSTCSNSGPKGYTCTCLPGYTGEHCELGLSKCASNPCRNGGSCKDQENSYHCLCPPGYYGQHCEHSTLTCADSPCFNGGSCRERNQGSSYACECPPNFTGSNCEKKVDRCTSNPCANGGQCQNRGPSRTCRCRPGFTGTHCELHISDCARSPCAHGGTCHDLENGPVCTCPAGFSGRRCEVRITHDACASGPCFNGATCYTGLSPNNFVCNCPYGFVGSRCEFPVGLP

B1: 00042 (VHH)
VHH: EVQLVESGGGLVQPGGSLRLSCAASGFTLDDYAIGWFRQAPGKEREGVSSIRDNDGSTYYADSVKGRFTISSDNSKNTVYLQMNSLRPEDTAVYYCAAVPAGRLRFGEQWYPLYEYDAWGQGTLVTVSS
With B1, the “IC50 (read off the curve)” value was about 1 nM in experiment [1], about 2 nM in [2], about 0.5 nM in experiment [3] and about 0.8 nM in experiment [4].

B2: 00045 (VHH)
VHH: EVQLVESGGGLVQPGGSLRLSCAASGFALDYYAIGWFRQAPGKEREGVSCISSSDGITYYADSVKGRFTISRDNSKNTVYLQMNSLRPEDTAVYYCATDSGGYIDYDCMGLGYDYWGQGTLVTVSS
Take B2: the “IC50 (read off the curve)” value in experiment [1] and in experiment [3] was about 0.2 nM throughout.

B3: DLLBII56C04 (VHH)
VHH: EVQLVESGGGLVQPGGSLRLSCTASGFTFDVYAIGWFRQAPGKEPEGISCISSSGSITYYADSVKGRFTTSRDSAKNTVYLQMNSLKPEDTAVYYCATPGIAACRGIHYWGQGTQVTVSS
notes: not shown: C-terminal c-myc and His6 tags
For B3, the binding result in experiment [5] is “binds”. The “EC50 (read off the curve)” value in experiment [6] is about 5 nM.

B4: 106H01 (VHH)
VHH: EVQLVESGGGLVQAGGSLRLSCAASGSTFSNYAMGWYRQAPGKQRELVVGISSDGSTHYADSAKGRFTISRDDAKNTVYLQMNSLKTEDTAVYYCYVPVKVAGLEYAYWGQGTQVTVSS
notes: also called DLLBII106H01
With B4, the binding result in experiment [7] and in experiment [8] was “binds” in each case.

B5: DLLBII133A09 (VHH)
VHH: EVQLVESGGGLVQPGGSLRLSCAASGFTFGSYDMSWVRRSPGKGPEWVSAINSGGGSTYYADYVKGRFTISRDNAKNTLYLQMNSLKPEDTAVYYCAADRYIWARQGEYWGAYAYDYWGQGTQVTVSS
notes: as for B3
For B5, the binding result in [9] and in [10] was “no binding” in each case. Also, the “EC50 (read off the curve)” value in experiment [11] is about 0.7 nM; in experiment [12], about 0.9 nM.

B6: 00050 (VHH)
VHH: EVQLVESGGGLVQPGGSLRLSCAASGFTFDDYALGWFRQAPGKEREGVSCIRCSDGSTYYADSVKGRFTISSDNSKNTVYLQMNSLRPEDTAVYYCAASIVPRSKLEPYEYDAWGQGTLVTVSS
Turning to B6, the “IC50 (read off the curve)” value in [13] is about 6 nM; in experiment [14], about 6 nM; in experiment [15], about 9 nM.

B7: 00921 (VHH)
VHH: B6 VHH with D55G
As to B7, the entries for the “IC50 (read off the curve)” value in [16], in [17] and in experiment [18] were about 20 nM, about 30 nM and about 40 nM, respectively.
